Test: soluble on expression in E. coli; label from the status in PepcDB or PDB records

Sequence | soluble on expression in E. coli
MSLNPRIDYLKSLSTLAAEIYPDIRGVKKLRYNARFCLWGILMPDTLARIQDLLNQPSFHPVRQHYPRTLEKPLKPYVCVKWPPQERAQRLIEHFAFLEKRHAQLLPLIYRHQGWSLFQHELFSIQLCHGPEREGSLALVLLSQDHQPLFTLAFNISGRNKPVIHIGALQGPGPNVENRQEIIRQLTHQLHGLRPKALIMEVLLILARYWCVEKVYGVTNEGHVYQALRYIGSKRSSVRFQYSELWQEMGGEAINPYWHSLPTHPPRKAPLSLSKTKRRLYTKRYAWLTELEQSIQANLQPWDNEIHHEGHHHHHH | soluble
MSAVVITDRHRRILKVNPAFTSISGFSANEVIGKNTFDVLLSESENIDKRLTTWKQVEELGAWQGELDVLSKNKRKLSLLVRIQSVKSKRKATQYYIISYIDITKR | not soluble
ADKAASGVLTKLPQKQIQEMKEAFSMIDVDRDGFVSKEDIKAISEQLGRAPDDKELTAMLKEAPGPLNFTMFLSIFSDKLSGTDSEETIRNAFAMFDEQETKKLNIEYIKDLLENMGDNFNKDEMRMTFKEAPVEGGKFDYVKFTAMIKGSGEEEA | soluble
LLQHAYNPINWYSWNDEAFKKAKEEDKPIFLSVGYSTCHWCHVMEKESFEDEEVAEIMNRNFVAIKVDKEERPDVDSVYMTVCQAMTGSGGWPMTIIMTPDKKPFFAGTYFPKYSRYNRPGVIDLLENVSEKWNTSRDILIKSGDEIIEAL | not soluble
MANTITADEIREHFSQAMSAMYQQEVPQYGTLLELVADVNLAVLENNPKLHEQLANADELARLNVERHGAIRVGTAEELSTLRRIFAIMGMYPVSYYDLSQAGVPVHSTAFRPIDEASLSRNPFRMFTSLLRLELIENAALRQRAAEILSQRDIFTSRCRQLLDEYDEQGGFSAAQAEEFVRETLETFRWHRQATVDEETYRSLHREHRLIADVVCFPGCHINHLTPRTLDIDRVQAMMPECGITPKILIEGPPRREVPILLRQTSFKALEEQVLFVDEKQGTHTARFGEIEQRGVALTPKGRRLYDELLHKAGTGKDNFTHQLHLREVFNAFPDSEFLLRQQGLAWFRYRLTPSGEAHRQAIHPGDDPQPLIERGWVIAQPITYEDFLPVSAAGIFQSNLGDETLARSHGNASRDAFEQALGCAVRDEFSLYQEAEERSKRRCGLLLEHHHHHH | not soluble
MTDRYIAFANSPVGRRLVGAVGLPSPLRLERWQAGRVRPVDGPLVIGGSGALAEAVLPFAGKLTDAVFAAVDGQFELPRWTAEHSPRAKAVLFDASGLTRFEQLVALRDFFQPVLKGLDKCPKVVVLGRPPESLKDPVTASVQRSLEGFTRSLGKEIRRGGNVQLLYVGKGAEDQLEGALRFFLSPKSAYVSGQVIRLAANSAQVHDWSKPLAGQRALVTGAARGIGAAIAETLARDGAEVVLLDVPPAREALEGLAARLGGRAVALDICAADAGQQLVEALPEGVDIVVHNAGITRDKTLAKMSSDFWNSVINVNLNAPQVLTQALLDGGKLHDNGRVVLLASISGIAGNLGQSNYAVSKAGLIGLAQAWAPALGKRGITINAVAPGFIETQMTAAIPLTIREAGRRMNSMSQGGLPQDVAETVAWFAQPSSGAVSGQVL | not soluble
MGSDKIHHHHHHMLHPIILAGGVTQTSEWSTGVCHLALETAPGVPSRFEGVLDAMSGDVFADPVVVTTRDNMSLVERQIAARPAALIVEPETHKPAAALLSAVLSLRHMPGALVVVAPATANLADTRNLDKALCNAIPAAQRGEIVMFGQRTTRAYGGFGIMEVVTQPHENAPVAVSRVLASGRKVTLSHLLHGNHQLWGTGLYLARVDVLLAAFKSHASRLFLPVKNALLRAGTVDRTTLLDRATYRRVKAITFEKAVAEKIENICAIQLDPTWSALEEWDQDAAADSAVAQWDEDLAQERAGVLNARAAAPFPHSADMMAVYASLSKISAEDALSAHATEYDWGRLESLAMGPGFTLQRMSIAPGATLDLNAAPGGAEHWIVAQGSVLITIGDHVRLVWEGHSARIPAGRSRRIENPGSGTLVLVQLQVMPLSATGQPQSAASFSPAGVA | not soluble
MSLNGKPAVFPEVKSIKITGNKALTTEEIREVMSTSTRNSFFGTGLFAGARRPFIADDFEKDISLIRKLYTFKGYFFADVEPTVKRSKNGDVSITIRIRENQPTLLDSLSYAGLDSIPENLRSRYLKKSLLKLQQIFSVEKLIEERDRTLDFFREHGYTFFHPDSIRITVDTLGLHAGVRFDISLPGRYAYGPVKVFVHDPLKKDNPAIAKTFVRDNVSVTIYGHQKFSPKVFSSAIAWKQGALTRQSLEQRTLENFGSTNLFSSISMQKDAARAGAIPITIDLDPAPKHQIEPKLLVDNRYGSLFVGGALSYENRNLFGAGQQLKLSTNYGRQLSSDTNVLSSLSADQYDKLIPYEFNIKADLVIPRLGKQGSYYNGTVEYAQSKLPVLLDSKRELIRATYSTRPTRVSKLDFDFFELEVARKDSLRGFQQLFKNDLAQNIGINPADPVAVNRGLDSLLQTRLNQTFRLRYSLSNREKSTRSKRSPIWNFSVTAEESGSLLWLIDKYIDKKSYAGFTDSDPQIFGTPYNQYVKLDTQLAVTKNLSPKRQVAARIALGWMSPYGKADTTPEDHRFYAGGSNSMRGWVFGTLGPGSCPNAAVSNFGADIKAELGLEYRIQFFKVFGQESGIALFTDAGNIWDRTGPYAFSLRSLTQDFAWDWGAGLRIGSPIGPFRFDFAWKLHDPANPQPWRFSQTKLTDFTFNFGIGETFEGHHHHHH | not soluble
MGSDKIHHHHHHMSLKDYDAARLAQVREEVTAKYAELKAKNLSLDLTRGKPSAEQLDLSNDLLSLPGGDFRTKDGVDCRNYGGLLGIADIRELWAEALGLPADLVVAQDGSSLNIMFDLISWSYTWGNNDSSRPWSAEEKVKWLCPVPGYDRHFTITEHFGFEMINVPMTDEGPDMGVVRELVKDPQVKGMWTVPVFGNPTGVTFSEQTCRELAEMSTAAPDFRIVWDNAYALHTLSDEFPIVHNVIEFAQAAGNPNRFWFMSSTSKITHAGSGVSFFASSKENIEWYASHANVRGIGPNKLNQLAHAQFFGDVAGLKAHMLKHAASLAPKFERVLEILDSRLSEYGVAKWTSPTGGYFISVDVVPGTASRVVELAKEAGIALTGAGSSFPLHNDPNNENIRLAPSLPPVAELEVAMDGFATCVLMAALEV | not soluble
MGSDKIHHHHHHMNELQAILEGFESSQESGEITFLATVVKTQGSTYRRPGAKMFMTNTGRTIGTISAGCLENDVFEYTQQRMSDGKPILVTYDRTASEDILWGFGLGCNGVVQVLIERLERKSIPNAIAFTQECFHKKHLGIIATVFAFEGEVDVELGSRLLLYPNGKIVTDIKDQYLIQSLSADTQAAFVNQKPSVNNYQLPFGSAEVFIEVIQPPTPLVIFGAGYGAVPIAKFAQALGWDVTVVDCRANDTTRARFPLACDVILSNRYIIHKQIFIDVQTIAVVMTHNYLDDLEILKMMLPSPARYIGVLGTKYRTERLLEDLSIKGIVPTSEQLNRLYSPVGIDIGAETPEEIAIAIIAEIQAVLKNRNSNFLKNRNQPIHKSYQDNFNL | not soluble
MPSYKLTYFNVRGYGEPARILFHLADVPFEDFRMTIGDGTWENLKAKTPFGQAPVLSVDGFEIPQSAAINRYLAKQFGYAGKTPEEQAWTDAIVDQYKDFMVSIKEVGKASAAGKSAEEVGKIIQSDLVPARDAFFVIINKILEKSKSGFLVGDGLTIADIVIVECITTLDKHQLFTASEQPKLVALREKVYAIPAIKKWVEIRPDTLN | not soluble
MKVSQVFISAISVFGLATSVNAQNASNTTSNAAPALHAQNGQLLNAGVVGAAVGGALAFLI | soluble
MGSDKIHHHHHHMTRIALTHVTTYRYGAPVTLGEHKMMFRPRDSHDLHIVEATLVLSPVAEVRWMHDVFGNSITIADFQGASTDFLRFESKILLDHFGLSEPTYPIAAYAETFPFTYDADLVADLGRTNERHYPDPDHRLDAWARRFLDEPGETATLEMLSAMNRAISAEFSYAARDTEGTQTPLETLERGSGSCRDFALLMMEAVRSLGLAARFVSGYLYDPALDGRNASGTVGAGATHAWLQVYLPGAGWVEFDPTNALVGGENLIRVAVTRDPSQAVPITGSFAGPGNAFLSMEVEVTLHRQDQNIQVA | not soluble

Reference: the DeepSol protein solubility set
